# B1: CPEB3 Ribozyme (parent)
# chain: GGGGGCCACAGCAGAAGCGUUCACGUCGCGGCCCCUGUCAGAUUCUGGUGAAUCUGCGAAUUCUGCUGU
# Variants of: B1
# Test: self-cleavage, relative activity (ratio to wild type); higher = more cleavage; co-transcriptional
row,Variant,self-cleavage
1,A10G G28C,0.169
2,C9G C22A,0.189
3,A10G G17C,0.106
4,A10U C45G,0.949
5,C9G C35A,0.267
6,A10U G58A,0.975
7,A10G U61A,0.6
8,A10C G11C,0.764
9,C9U G48C,1.02
10,C9U G17C,0.32
11,C9U G17U,0.832
12,C9U G68C,1.03
13,C9G C33A,1.03
14,C9G U49G,0.954
15,C9G U49A,1
16,C9G U49C,1.01
17,A10U U61A,0.911
18,A10U U61G,0.78
19,C9G C24G,0.608
20,A10G C27U,0.613
21,A10C C39U,0.877
22,A10U G11A,0.873
23,A10U G11C,0.892
24,A10U C35G,0.64

row,Variant,self-cleavage
1,A10U C35A,0.245
2,C9G U44G,0.96
3,A10U G41C,0.859
4,A10U A40G,0.951
5,A10C U62A,0.926
6,A10C C18U,0.882
7,A10C C18A,0.12
8,A10C U49G,1.04
9,A10G C66A,0.385
10,A10G C45G,0.839
11,A10U G17A,0.547
12,A10U G48A,1.02
13,A10U G48C,1.03
14,A10U C18U,0.883
15,A10U C18A,0.222
16,C9U U61C,0.866
17,A10G U53C,0.333
18,A10G U53A,0.651
19,C9U G50A,1.02
20,A10U U53C,0.871
21,C9G G30A,0.975
22,C9G G30C,0.948
23,C9G G30U,0.759
24,C9G U55A,0.929

row,Variant,self-cleavage
1,A10C G56U,0.936
2,A10C G56A,0.989
3,A10G C12U,0.948
4,A10G C12G,0.742
5,A10G C12A,0.356
6,A10C C63G,0.629
7,C9U G30A,0.972
8,C9U G30C,0.981
9,A10G A42C,0.668
10,C9G G41A,0.872
11,A10G C18G,0.0572
12,A10G C18U,0.264
13,A10G C18A,0.0954
14,A10U G68U,0.982
15,A10U G68A,1.05
16,A10G C35U,0.892
17,A10G C35A,0.197
18,A10G C35G,0.496
19,A10C C54A,0.896
20,A10C C54G,0.993
21,A10C C54U,1.02
22,C9U G41C,0.949
23,C9U G41U,0.974
24,A10C U55G,0.799

row,Variant,self-cleavage
1,A10C U21C,0.905
2,A10C U21G,0.535
3,A10C U46C,0.98
4,C9U C57G,0.334
5,C9G G17A,0.66
6,C9G G17U,0.68
7,A10C G58A,0.961
8,C9G C66A,0.831
9,A10U A52U,1.02
10,C9G G31A,0.936
11,C9U C54U,0.988
12,A10C U36G,0.246
13,A10C U36A,0.226
14,A10C U36C,0.966
15,C9U C32U,1.02
16,C9G C34U,1.01
17,C9G C34A,0.953
18,A10C C66A,0.862
19,A10C C66U,0.974
20,A10C C66G,0.892
21,A10U C34U,0.985
22,A10C C34G,0.868
23,A10C G41U,0.826
24,A10C G41C,0.798

row,Variant,self-cleavage
1,A10C G41A,0.824
2,A10G U38C,0.906
3,A10G U38A,0.784
4,A10G U38G,0.182
5,A10G A13U,0.13
6,A10G A13G,0.233
7,A10U U36G,0.195
8,A10U U36C,0.924
9,C9G A40C,0.715
10,C9G A40U,0.827
11,A10C C45G,1.05
12,C9G C63G,0.799
13,C9U C45G,1.07
14,A10G U26G,0.877
15,A10G U26C,0.351
16,A10G U26A,0.933
17,A10C G47C,1
18,A10G A40U,0.301
19,A10G U64G,0.398
20,C9G G37C,0.289
21,C9G G37A,0.371
22,A10G G58U,0.947
23,C9U C12G,0.976
24,C9U C12A,0.785

row,Variant,self-cleavage
1,C9U C12U,1.01
2,C9G U53A,0.98
3,C9G G47U,1.04
4,C9G G47A,1.05
5,C9U C66G,0.921
6,C9U U44G,1.06
7,A10C U43A,0.892
8,A10C U43C,0.965
9,A10C U43G,0.808
10,C9U G19C,0.143
11,A10C A40G,0.976
12,A10C A59C,0.832
13,A10C A59G,1
14,A10U G65A,0.842
15,A10U G65U,0.796
16,A10G A60C,0.176
17,A10G A60U,0.221
18,C9U G25A,0.306
19,A10C U67A,1.02
20,C9U C29U,0.874
21,A10C C32G,0.418
22,A10C U64C,0.769
23,A10C U64A,0.779
24,C9U,1.01

row,Variant,self-cleavage
1,C9G G11C,0.721
2,C9G G11U,0.922
3,A10U C27U,0.547
4,A10U C27A,0.272
5,A10U U55C,0.9
6,C9U A59U,0.888
7,C9U A59C,0.877
8,C9U U53C,0.931
9,C9U A51U,1
10,C9U A16U,0.864
11,C9U A16G,0.956
12,A10U U26G,0.994
13,C9G A15U,0.911
14,C9G A15G,0.988
15,A10G G47U,0.919
16,C9G C27G,0.246
17,C9G C27A,0.754
18,A10G U20A,0.0584
19,A10U C12U,0.913
20,A10U C12A,0.707
21,A10C A42C,0.961
22,A10C A42G,0.896
23,A10G C22A,0.141
